According to publication PMC3121763:

Legend:
[1] = target: 6xHis-tagged Gifsy-1 prophage repressor GfoR (Salmonella enterica serovar Typhimurium strain ATCC14028, prophage Gifsy-1); assay: SEC; Sephadex G75 column in IPE buffer (Tris-HCl 20 mM pH 8, NaCl 500 mM, Igepal 0.1%, imidazole 250 mM); about 10 ug of Ni-NTA-purified repressor (cells grown without arabinose) or co-expressed, co-purified repressor-antirepressor complex (with arabinose); calibrated with alpha-chymotrypsin, ovalbumin and BSA; fractions on SDS gel
[2] = test system: T1, GtgR (Gifsy-2 phage repressor; also written GftR) (Salmonella enterica ATCC14028, Gifsy-2 prophage), ORF:1b72f8f1; assay: EMSA; details: 20 mM Tris-HCl pH 7.5, 50 mM NaCl, 0.2 mM EDTA (5x stock in Methods: 1 mM), 1 mM MgCl2, 5% glycerol, PMSF, 50 ug/mL sonicated salmon sperm DNA; room …
T1 sequence: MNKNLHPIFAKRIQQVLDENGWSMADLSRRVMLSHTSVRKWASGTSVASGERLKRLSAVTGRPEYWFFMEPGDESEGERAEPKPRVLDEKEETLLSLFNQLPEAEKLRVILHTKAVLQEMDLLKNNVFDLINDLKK

3xFLAG-tagged Gifsy-1 antirepressor GfoA (natural protein)
stoichiometry N (GfoA per GfoR (2:2)) [1]: 1

6xHis-tagged Gifsy-1 prophage repressor GfoR (natural protein)
stoichiometry N [1]: 2

GTTCGCCGATGCTCATTTGAGTCATGTGGTTACTGATTTTGATTTTTAATTGGTTGTCCATTTGGCTCTCCAGTTCTACGAGTTGGTAGCTGGAGATTATCACGTAAAACTTTAGGTTCCAACAAAAATCAATCTAATAGTTCCAATGAATAAAGAAACTGAAGGTTGTAAAATGTGAATATGAACAAAAATCTTCATCCCATTTTCGCCAAGCGTATCCAGCAAGTTCTGGATGAGAACGGCTGGTCTATGGCTGACCTCTCACGG (double strand) [Gifsy-2 right operator fragment (267 bp)]
binding [2]: binds
